Measurements as given in publication PMC11530598.
Blank lines part the entries; values can stand above or below the substance they belong to.

Legend:
actin (filaments) = actin (filaments) (UniProt P68135); assay: TIRF intensity of HC on actin filaments; conditions: reference: HC1-1500 + DYRK1a without ATP
[1] = biological target: tubulin (taxol-stabilized microtubules); assay: TIRF intensity of HC on microtubules; conditions: reference: HC1-1500 + DYRK1a without ATP
[2] = biological target: taxol-stabilized microtubules (porcine brain tubulin) (porcine); assay: TIRF microscopy binding assay (fluorescence intensity on filaments); fluorescent MAP1B constructs in solution on taxol-stabilized microtubules held on the coverslip; titrations for KD (KD of the LC called apparent); 10 nM on WT and subtilisin-digested microtubules in the same chamber; 90 mM Hepes pH 7.4, 150 mM K-acetate, 2 mM Mg-acetate, 1 mM EGTA, 10% glycerol, 10 uM taxol
[3] = biological target: subtilisin-digested microtubules (porcine brain tubulin without the C-terminal tails) (porcine); assay: as above
[4] = biological target: taxol-stabilized microtubules (porcine brain tubulin) (porcine)
[5] = biological target: actin filaments (rabbit skeletal muscle actin) (rabbit) (UniProt P68135); assay: TIRF microscopy binding assay (fluorescence intensity on filaments); 50 nM bacterially expressed HC^1-1500 on actin filaments after incubation with DYRK1a with or without ATP (37 C, 30 min)
[6] = biological target: taxol-stabilized microtubules (porcine brain tubulin) (porcine); assay: TIRF microscopy binding assay (fluorescence intensity on filaments); 50 nM bacterially expressed HC^1-1500 on microtubules after incubation with DYRK1a with or without ATP (37 C, 30 min)

Substance: MAP1B (heavy chain HC, light chain LC/LC1) HC 1-1500 (from UniProt P14873) HC1-1500 + DYRK1a with ATP
other: percent reduction (actin (filaments)): 75%
other: percent reduction [1]: 21%

Substance: MAP1B HC MTBD^639-767 (from UniProt P14873 639-767) (domain or fragment)
Kd [2]: 13.6 nM

Substance: TMR-spastin (truncated human spastin, delta227) (from UniProt Q9UBP0 1-616) (enzyme)
reduction of microtubule fluorescence intensity after 10 min with spastin (severing) in the presence of 10 nM LC-sfGFP; 82% with spastin alone [4]: 19%
reduction of microtubule fluorescence intensity after 10 min with spastin (severing) in the presence of 50 nM sfGFP-HC^1-1500; 82% with spastin alone [4]: 60%

Substance: sfGFP-MAP1B HC^1-1103 (from UniProt P14873 1-1103) (domain or fragment)
Kd [2]: 1.1 nM

Substance: sfGFP-MAP1B HC^1-1500, bacterially expressed, phosphorylated by DYRK1a (from UniProt P14873 1-1500) (domain or fragment)
percent reduction of fluorescence intensity on actin filaments against the sample without ATP [5]: 75%
percent reduction of fluorescence intensity on microtubules against the sample without ATP [6]: 21%

Further lines, results first:

Kd [2]: 3.8 nM
Substance: MAP1B HC^1-2202-sfGFP (full-length MAP1B heavy chain) (from UniProt P14873 1-2202) (domain or fragment)

Kd [2]: 1.5 nM
percent decrease of fluorescence intensity against WT microtubules [3]: 87%
Substance: MAP1B LC 2203-2464-sfGFP (from UniProt P14873 2203-2464) (domain or fragment)

Kd [2]: 185 nM
Substance: sfGFP-MAP1B HC^1-532 (from UniProt P14873 1-532) (domain or fragment)

Kd [2]: 1.8 nM
percent decrease of fluorescence intensity against WT microtubules [3]: 45%
Substance: sfGFP-MAP1B HC^1-1500, bacterially expressed (from UniProt P14873 1-1500) (domain or fragment)
